Results reported in patent publication US20220010021A1 (Sanofi, published 2022).

Legend:
[1] = target: cell surface receptor composed of FGFR1c and co-receptor beta-Klotho (KLB) (human, UniProt P11362 22-822; Q86Z14 1-1044); test: cell-based or functional assay; as to Mean E max, Luciferase reporter gene assay: reference of the scale not given here
[2] = target: T1, human beta-Klotho (KLB) (human, UniProt Q86Z14 53-997); test: BLI off-rate screening (Octet), crude supernatant;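 also: supernatants tested at 25 µg/mL, dissociation from biosensors recorded in D-PBS with 0.1% BSA over 1800 s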
T1 construct: Bought protein; also called human KLB; β-Klotho
T1 sequence (looked up): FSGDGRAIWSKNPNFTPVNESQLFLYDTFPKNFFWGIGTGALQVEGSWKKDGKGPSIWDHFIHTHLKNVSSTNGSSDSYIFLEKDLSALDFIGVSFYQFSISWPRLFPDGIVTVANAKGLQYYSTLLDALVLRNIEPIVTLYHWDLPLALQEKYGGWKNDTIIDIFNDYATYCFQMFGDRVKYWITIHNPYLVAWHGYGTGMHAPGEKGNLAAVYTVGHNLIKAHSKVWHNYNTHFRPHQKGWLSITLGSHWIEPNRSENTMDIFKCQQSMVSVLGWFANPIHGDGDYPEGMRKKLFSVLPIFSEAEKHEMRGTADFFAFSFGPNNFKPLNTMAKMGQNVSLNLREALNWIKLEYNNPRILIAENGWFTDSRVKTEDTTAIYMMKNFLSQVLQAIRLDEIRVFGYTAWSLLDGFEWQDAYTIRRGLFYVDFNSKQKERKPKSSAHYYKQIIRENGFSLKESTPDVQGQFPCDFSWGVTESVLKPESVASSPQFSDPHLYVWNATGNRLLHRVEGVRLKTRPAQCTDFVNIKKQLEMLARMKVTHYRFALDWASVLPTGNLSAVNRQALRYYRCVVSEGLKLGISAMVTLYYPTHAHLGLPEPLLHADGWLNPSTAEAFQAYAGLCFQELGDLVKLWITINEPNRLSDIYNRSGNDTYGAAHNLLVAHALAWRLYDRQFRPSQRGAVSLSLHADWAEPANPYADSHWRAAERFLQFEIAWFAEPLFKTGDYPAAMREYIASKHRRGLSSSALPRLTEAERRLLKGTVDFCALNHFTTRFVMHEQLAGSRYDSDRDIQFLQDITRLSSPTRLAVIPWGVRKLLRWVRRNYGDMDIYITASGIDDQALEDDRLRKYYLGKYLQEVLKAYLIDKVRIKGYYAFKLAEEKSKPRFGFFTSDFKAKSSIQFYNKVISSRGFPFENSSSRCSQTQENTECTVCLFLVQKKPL

cell surface receptor composed of FGFR1c and co-receptor beta-Klotho (KLB), sequence (P11362 22-822, chain 1 of 2): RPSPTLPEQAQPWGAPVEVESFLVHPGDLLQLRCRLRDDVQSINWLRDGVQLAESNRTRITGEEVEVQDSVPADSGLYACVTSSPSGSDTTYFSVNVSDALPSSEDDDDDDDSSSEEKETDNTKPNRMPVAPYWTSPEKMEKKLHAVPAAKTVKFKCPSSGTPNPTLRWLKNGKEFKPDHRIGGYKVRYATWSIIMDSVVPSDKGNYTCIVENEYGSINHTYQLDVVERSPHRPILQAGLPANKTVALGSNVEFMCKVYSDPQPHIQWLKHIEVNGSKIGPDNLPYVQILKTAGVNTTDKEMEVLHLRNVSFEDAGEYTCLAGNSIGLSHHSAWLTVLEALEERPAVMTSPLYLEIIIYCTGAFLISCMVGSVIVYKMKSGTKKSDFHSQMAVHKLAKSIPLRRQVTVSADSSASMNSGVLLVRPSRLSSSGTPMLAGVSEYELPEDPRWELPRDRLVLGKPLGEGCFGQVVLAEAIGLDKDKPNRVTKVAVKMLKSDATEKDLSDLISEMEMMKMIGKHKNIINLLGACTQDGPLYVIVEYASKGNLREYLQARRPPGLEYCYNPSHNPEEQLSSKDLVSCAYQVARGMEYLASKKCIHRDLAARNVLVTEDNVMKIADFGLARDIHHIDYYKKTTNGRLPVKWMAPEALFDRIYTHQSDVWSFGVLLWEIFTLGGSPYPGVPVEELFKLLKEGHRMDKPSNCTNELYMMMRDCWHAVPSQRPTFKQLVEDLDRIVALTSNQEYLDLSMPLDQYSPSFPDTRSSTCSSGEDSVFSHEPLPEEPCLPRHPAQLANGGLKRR
cell surface receptor composed of FGFR1c and co-receptor beta-Klotho (KLB), sequence (Q86Z14 whole entry, chain 2 of 2): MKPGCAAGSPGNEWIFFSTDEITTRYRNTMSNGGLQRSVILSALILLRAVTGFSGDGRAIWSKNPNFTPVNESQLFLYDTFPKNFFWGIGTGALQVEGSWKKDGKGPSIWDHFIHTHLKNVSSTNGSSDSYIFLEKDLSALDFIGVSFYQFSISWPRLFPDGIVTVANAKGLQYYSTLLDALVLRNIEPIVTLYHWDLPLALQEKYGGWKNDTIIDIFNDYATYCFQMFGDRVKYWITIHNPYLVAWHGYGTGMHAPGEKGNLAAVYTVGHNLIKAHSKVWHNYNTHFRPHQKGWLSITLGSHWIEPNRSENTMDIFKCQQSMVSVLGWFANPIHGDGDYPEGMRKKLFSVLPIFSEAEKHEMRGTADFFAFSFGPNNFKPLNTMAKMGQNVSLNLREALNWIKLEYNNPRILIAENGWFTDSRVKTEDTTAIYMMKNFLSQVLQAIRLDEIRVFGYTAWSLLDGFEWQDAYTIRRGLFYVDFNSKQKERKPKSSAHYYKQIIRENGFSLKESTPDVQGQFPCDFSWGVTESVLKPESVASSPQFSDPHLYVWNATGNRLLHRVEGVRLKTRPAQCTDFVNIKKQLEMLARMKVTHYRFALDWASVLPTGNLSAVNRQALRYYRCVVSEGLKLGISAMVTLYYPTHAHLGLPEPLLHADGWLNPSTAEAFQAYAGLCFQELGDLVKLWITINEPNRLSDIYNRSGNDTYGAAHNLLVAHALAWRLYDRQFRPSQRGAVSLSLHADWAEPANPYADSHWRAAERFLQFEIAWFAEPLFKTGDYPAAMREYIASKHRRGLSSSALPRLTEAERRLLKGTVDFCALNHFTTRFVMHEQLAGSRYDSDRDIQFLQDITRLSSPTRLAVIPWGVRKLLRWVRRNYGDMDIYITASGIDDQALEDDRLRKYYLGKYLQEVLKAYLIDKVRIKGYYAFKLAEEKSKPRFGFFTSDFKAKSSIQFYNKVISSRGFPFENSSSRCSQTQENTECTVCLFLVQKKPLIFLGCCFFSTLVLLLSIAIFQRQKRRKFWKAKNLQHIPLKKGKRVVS

B1: 16H7 light chain variant H33Y (antibody, IgG4, V domains shown)
VH: not shown
VL: SYVLTQPPSVSVAPGQTARITCGGNNIGSESVYWYQQKPGQAPVLVVYDDSDRPSGIPERFSGSNSGNTATLTISRVEAGDEADYYCQVWDGNSDHVVFGGGTKLTVLG
notes: IgG4 backbone
Mean E max, Luciferase reporter gene assay [1]: 98% | Mean EC50, Luciferase reporter gene assay [1]: 120 pM | koff [2]: 7.5e-05 s⁻¹

B2: 16H7 light chain variant H96E (antibody, IgG4, V domains shown)
VH: not shown
VL: SYVLTQPPSVSVAPGQTARITCGGNNIGSESVHWYQQKPGQAPVLVVYDDSDRPSGIPERFSGSNSGNTATLTISRVEAGDEADYYCQVWDGNSDEVVFGGGTKLTVLG
notes: IgG4 backbone
Mean E max, Luciferase reporter gene assay [1]: 100% | Mean EC50, Luciferase reporter gene assay [1]: 122 pM | koff [2]: 1.1e-05 s⁻¹

B3: 16H7 light chain variant H96L (antibody, IgG4, V domains shown)
VH: not shown
VL: SYVLTQPPSVSVAPGQTARITCGGNNIGSESVHWYQQKPGQAPVLVVYDDSDRPSGIPERFSGSNSGNTATLTISRVEAGDEADYYCQVWDGNSDLVVFGGGTKLTVLG
notes: IgG4 backbone
Mean E max, Luciferase reporter gene assay [1]: 98% | Mean EC50, Luciferase reporter gene assay [1]: 176 pM | koff [2]: 0.00013 s⁻¹

B4: 16H7 light chain variant H96N (antibody, IgG4, V domains shown)
VH: not shown
VL: SYVLTQPPSVSVAPGQTARITCGGNNIGSESVHWYQQKPGQAPVLVVYDDSDRPSGIPERFSGSNSGNTATLTISRVEAGDEADYYCQVWDGNSDNVVFGGGTKLTVLG
notes: IgG4 backbone
Mean E max, Luciferase reporter gene assay [1]: 112% | Mean EC50, Luciferase reporter gene assay [1]: 143 pM | koff [2]: 4.4e-05 s⁻¹

B5: 16H7 light chain variant H96S (antibody, IgG4, V domains shown)
VH: not shown
VL: SYVLTQPPSVSVAPGQTARITCGGNNIGSESVHWYQQKPGQAPVLVVYDDSDRPSGIPERFSGSNSGNTATLTISRVEAGDEADYYCQVWDGNSDSVVFGGGTKLTVLG
notes: IgG4 backbone
Mean E max, Luciferase reporter gene assay [1]: 102% | Mean EC50, Luciferase reporter gene assay [1]: 97 pM | koff [2]: 3e-05 s⁻¹

B6: 16H7 light chain variant H96G (antibody, IgG4, V domains shown)
VH: not shown
VL: SYVLTQPPSVSVAPGQTARITCGGNNIGSESVHWYQQKPGQAPVLVVYDDSDRPSGIPERFSGSNSGNTATLTISRVEAGDEADYYCQVWDGNSDGVVFGGGTKLTVLG
notes: IgG4 backbone
Mean E max, Luciferase reporter gene assay [1]: 95% | Mean EC50, Luciferase reporter gene assay [1]: 130 pM | koff [2]: 0.00015 s⁻¹

B7: 16H7 light chain variant H96R (antibody, IgG4, V domains shown)
VH: not shown
VL: SYVLTQPPSVSVAPGQTARITCGGNNIGSESVHWYQQKPGQAPVLVVYDDSDRPSGIPERFSGSNSGNTATLTISRVEAGDEADYYCQVWDGNSDRVVFGGGTKLTVLG
notes: IgG4 backbone
Mean E max, Luciferase reporter gene assay [1]: 102% | Mean EC50, Luciferase reporter gene assay [1]: 95 pM | koff [2]: 0.00014 s⁻¹

B8: 16H7 light chain variant H96D (antibody, IgG4, V domains shown)
VH: not shown
VL: SYVLTQPPSVSVAPGQTARITCGGNNIGSESVHWYQQKPGQAPVLVVYDDSDRPSGIPERFSGSNSGNTATLTISRVEAGDEADYYCQVWDGNSDDVVFGGGTKLTVLG
notes: IgG4 backbone
Mean E max, Luciferase reporter gene assay [1]: 100% | Mean EC50, Luciferase reporter gene assay [1]: 111 pM | koff [2]: 2.2e-05 s⁻¹

B9: 16H7 light chain variant H96K (antibody, IgG4, V domains shown)
VH: not shown
VL: SYVLTQPPSVSVAPGQTARITCGGNNIGSESVHWYQQKPGQAPVLVVYDDSDRPSGIPERFSGSNSGNTATLTISRVEAGDEADYYCQVWDGNSDKVVFGGGTKLTVLG
notes: IgG4 backbone
Mean E max, Luciferase reporter gene assay [1]: 98% | Mean EC50, Luciferase reporter gene assay [1]: 179 pM | koff [2]: 6.4e-05 s⁻¹

B10: 16H7 light chain variant H96Q (antibody, IgG4, V domains shown)
VH: not shown
VL: SYVLTQPPSVSVAPGQTARITCGGNNIGSESVHWYQQKPGQAPVLVVYDDSDRPSGIPERFSGSNSGNTATLTISRVEAGDEADYYCQVWDGNSDQVVFGGGTKLTVLG
notes: IgG4 backbone
Mean E max, Luciferase reporter gene assay [1]: 104% | Mean EC50, Luciferase reporter gene assay [1]: 106 pM | koff [2]: 5e-05 s⁻¹
